Patent publication US20230052680A1

Target: human FGFR2b (beta)-Fc (human) (UniProt P21802)
Experiment: surface plasmon resonance (Biacore T200), hFGFR2b-Fc amine-coupled to a CM5 chip, antibody injected

In the case of FPA144 (antibody), the Kd is reported as 750 pM, the koff is reported as 7.77e-05 s⁻¹ and the kon is reported as 104000 M⁻¹ s⁻¹.
